Tests used:
[1] = test system: pancreatic cancer patients; settings: gemcitabine alone, Moore et al.; cited from earlier work
[2] = test system: patients with advanced solid tumors; settings: cited from earlier work
[3] = test system: patients with previously untreated metastatic pancreatic cancer; test: Multi-center phase I trial of AMG 655 + gemcitabine; format: in vivo
Text: Example 2 describes the treatment of patients with metastatic pancreatic cancer with AMG 655 in combination with gemcitabine.
Conatumumab (AMG 655) is an investigational, fully human agonist monoclonal antibody (IgG1) that binds human death receptor 5 (DR5), activates caspases, and induces apoptosis in sensitive tumor cells. In a multi-center phase I trial to evaluate AMG 655 +gemcitabine in metastatic pancreatic patients. The primary endpoint was dose-limiting toxicity (DLT). Secondary endpoints included toxicity, pharmacokinetics, antibody formation, objective response rate, progression-free survival (PFS), 6-month and overall survival.
Eligible patients had previously untreated metastatic pancreatic cancer and ECOG PS (Eastern Cooperative Oncology Group Performance Status) 0 or 1. Patients were enrolled into sequential cohorts and received AMG 655 3 or 10 mg/kg IV days (D) 1 and 15 and gemcitabine 1000 mg/m^2IV D 1, 8, and 15 every 28 D. CT scans were obtained Q2 cycles.

[4] = dose cohorts 0.3, 1 and 3 mg/kg
[5] = of 13 patients with tumor-response data

Compound: Nc1ccn([C@@H]2O[C@H](CO)[C@@H](O)C2(F)F)c(=O)n1 [gemcitabine]
- median overall survival (50% survival) [1]: approximately 6 months
- survival at 1 year [1]: 17%

Compound: AMG 655: fully human monoclonal agonist antibody (IgG1) that binds human death receptor 5 (DR5); CAS Registry Number 896731-82-1
- DLTs ([2]; 0.3, 1, 3, 10 or 20 mg/kg IV Q2W, 16 patients): No DLTs
- AMG 655-related serious AEs ([2]; 0.3-20 mg/kg IV Q2W, 16 patients): No
- MTD ([2]; 0.3-20 mg/kg IV Q2W): not reached
- reduction in tumor volume by RECIST ([2]; NSCLC patient with partial response): 46%
- time on study of partial responder ([2]; NSCLC patient, remains on study): > 48 weeks
- partial response ([2]; NSCLC, tumor-response data for 13 patients): 1 patient
- grade 3 or higher AMG 655-related AEs ([2]; both in the same patient, 0.3-mg/kg cohort): Fatigue and elevated serum lipase
- reduction in maximum standardized uptake value (SUVmax) ([2]; colorectal cancer patient with stable disease, metabolic partial response (FDG-PET)): 34%
- half-life [2, 4]: ~240 h
- kinetics (dose linearity) [2, 4]: dose-linear kinetics
- anti-AMG 655 antibodies ([2]; monotherapy): No anti-AMG 655 antibodies were detected
- progressive disease [2, 5]: 8 patients
- stable disease [2, 5]: 4 patients
- patients reporting AMG 655-related AEs ([2]; of 16 patients): Nine
- treatment-related AE: fatigue ([2]; of 16 patients): 3 patients
- treatment-related AE: hypomagnesaemia ([2]; of 16 patients): 3 patients
- treatment-related AE: pyrexia ([2]; of 16 patients): 4 patients
- tolerability ([2]; up to 20 mg/kg Q2W): well tolerated
- anti-AMG 655 antibodies ([3]; in combination with gemcitabine): No anti-AMG 655 antibodies were detected
- effect of AMG 655 on pharmacokinetic (PK) of gemcitabine ([3]; preliminary data): no effect

Source: patent US20120070432A1, “TREATMENT OF PANCREATIC CANCER USING A DR5 AGONIST IN COMBINATION WITH GEMCITABINE” (AMGEN INC., priority 2009, published 2012)
